Reference: patent publication US20110300158A1 (GlaxoSmithKline, published 2011)

Experiments:
[1] = molecular target: T1, Human Serum Albumin (human, UniProt P02768 25-609); assay: SPR (BIAcore)
T1 construct: immobilised on CM5 chips; also called HSA; human SA
Procedure: (§1) Binding to HSA, CSA, MSA and RSA by BIAcore was confirmed using purified protein at 3 concentrations 1 μM, 500 nM and 50 nM.

[2] = molecular target: T2, Rat Serum Albumin (rat, UniProt P02770 25-608); assay: SPR (BIAcore)
T2 construct: also called RSA; rat SA
Procedure: as §1

[3] = molecular target: T3, mouse serum albumin (mouse, UniProt P07724 25-608); assay: SPR (BIAcore)
T3 construct: also called MSA; mouse SA
T3 sequence (P07724 25-608 limits assumed): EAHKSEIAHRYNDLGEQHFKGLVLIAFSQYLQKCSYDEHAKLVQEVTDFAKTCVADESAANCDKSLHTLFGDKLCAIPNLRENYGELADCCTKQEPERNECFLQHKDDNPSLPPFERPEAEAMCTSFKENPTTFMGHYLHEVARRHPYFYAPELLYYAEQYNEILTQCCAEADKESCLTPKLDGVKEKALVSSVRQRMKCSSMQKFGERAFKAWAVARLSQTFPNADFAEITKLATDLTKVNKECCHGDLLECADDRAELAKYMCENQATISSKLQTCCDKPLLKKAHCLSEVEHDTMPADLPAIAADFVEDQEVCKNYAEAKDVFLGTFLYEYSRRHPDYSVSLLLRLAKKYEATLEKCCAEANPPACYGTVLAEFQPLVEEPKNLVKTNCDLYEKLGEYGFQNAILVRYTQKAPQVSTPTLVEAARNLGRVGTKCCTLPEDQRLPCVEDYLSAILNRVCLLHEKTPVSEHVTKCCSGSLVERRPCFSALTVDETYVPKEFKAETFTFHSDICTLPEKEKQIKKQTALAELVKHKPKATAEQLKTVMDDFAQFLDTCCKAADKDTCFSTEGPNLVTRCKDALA
Procedure: as §1

[4] = molecular target: T4, Cynomolgus monkey Serum Albumin (Cynomolgus monkey, UniProt A2V9Z4 25-608); assay: SPR (BIAcore)
T4 construct: also called CSA; cyno SA
T4 sequence (A2V9Z4 25-608 limits assumed): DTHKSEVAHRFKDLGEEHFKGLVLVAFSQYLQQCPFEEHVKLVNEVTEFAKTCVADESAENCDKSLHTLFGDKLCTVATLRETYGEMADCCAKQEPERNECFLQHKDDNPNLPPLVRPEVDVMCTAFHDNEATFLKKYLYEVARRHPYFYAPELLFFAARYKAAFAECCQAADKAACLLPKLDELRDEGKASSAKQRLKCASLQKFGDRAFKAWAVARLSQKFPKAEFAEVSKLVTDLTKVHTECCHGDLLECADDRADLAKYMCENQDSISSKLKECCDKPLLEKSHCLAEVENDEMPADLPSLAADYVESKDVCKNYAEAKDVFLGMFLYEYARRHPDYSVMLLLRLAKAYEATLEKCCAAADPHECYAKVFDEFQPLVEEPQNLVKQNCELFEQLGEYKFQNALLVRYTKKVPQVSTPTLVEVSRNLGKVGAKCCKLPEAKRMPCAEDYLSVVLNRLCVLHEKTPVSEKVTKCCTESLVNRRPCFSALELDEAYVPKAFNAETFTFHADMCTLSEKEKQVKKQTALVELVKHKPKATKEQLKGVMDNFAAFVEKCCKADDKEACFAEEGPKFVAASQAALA
Procedure: as §1

[5] = molecular target: T1, Human Serum Albumin; assay: SPR (BIAcore), second independent experiment
[6] = molecular target: T2, Rat Serum Albumin; assay: SPR (BIAcore), second independent experiment
[7] = molecular target: T3, mouse serum albumin; assay: SPR (BIAcore), second independent experiment
[8] = molecular target: T4, Cynomolgus monkey Serum Albumin; assay: SPR (BIAcore), second independent experiment
[9] = molecular target: T2, Rat Serum Albumin; assay: SPR (BIAcore), DOM1m-21-23 fusion against unfused dAb
[10] = molecular target: T2, Rat Serum Albumin; assay: SPR (BIAcore), DOM1m-21-23 fusion; albumin taken as RSA from the sentence before; fused to DOM1m21-23

T2 sequence (P02770 25-608 limits assumed): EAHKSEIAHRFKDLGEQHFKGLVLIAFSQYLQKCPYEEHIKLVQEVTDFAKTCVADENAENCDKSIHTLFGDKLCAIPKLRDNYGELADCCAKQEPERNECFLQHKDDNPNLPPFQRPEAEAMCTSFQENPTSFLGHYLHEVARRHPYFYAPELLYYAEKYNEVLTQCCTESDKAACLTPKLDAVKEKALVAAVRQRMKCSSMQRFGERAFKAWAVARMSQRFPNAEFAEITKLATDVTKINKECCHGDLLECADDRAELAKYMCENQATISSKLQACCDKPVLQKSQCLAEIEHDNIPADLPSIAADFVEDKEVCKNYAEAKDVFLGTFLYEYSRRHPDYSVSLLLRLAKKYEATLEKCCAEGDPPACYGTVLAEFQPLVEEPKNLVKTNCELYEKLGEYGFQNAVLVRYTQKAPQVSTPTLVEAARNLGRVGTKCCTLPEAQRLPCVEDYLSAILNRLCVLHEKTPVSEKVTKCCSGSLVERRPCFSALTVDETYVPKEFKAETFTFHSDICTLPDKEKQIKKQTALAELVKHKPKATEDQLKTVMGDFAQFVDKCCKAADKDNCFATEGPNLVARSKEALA

B1: DOM7h-14-28 (other)
VL: DIQMTQSPSSLSASVGDRVTITCRASQWIGSQLSWYQQKPGKAPKLLIMWRSSLQSGVPSRFSGSGSGTDFTLTISSLQPEDFATYYCAQGAALPKTFGQGTKVEIKR
notes: Vk dAb; tag not included
Work on B1 yielded a Kd [1] of 30 nM, a koff [1] of 0.033 s⁻¹ and a kon [1] of 1.24e+06 M⁻¹ s⁻¹. It also gave a Kd [2] of 45 nM, a koff [2] of 0.07 s⁻¹ and a kon [2] of 2.1e+06 M⁻¹ s⁻¹. It also gave a Kd [3] of 26 nM, a koff [3] of 0.034 s⁻¹ and a kon [3] of 1.6e+06 M⁻¹ s⁻¹. It also gave a Kd [4] of 66 nM, a koff [4] of 0.13 s⁻¹ and a kon [4] of 2.5e+06 M⁻¹ s⁻¹. For the same binder, the Kd [5] was 8260 nM, the koff [5] was 0.056 s⁻¹ and the kon [5] was 6780 M⁻¹ s⁻¹. For the same binder, the Kd [6] was 140 nM, the koff [6] was 0.114 s⁻¹ and the kon [6] was 830000 M⁻¹ s⁻¹. For the same binder, the Kd [7] was 31 nM, the koff [7] was 0.0715 s⁻¹ and the kon [7] was 2.28e+06 M⁻¹ s⁻¹. It also gave a Kd [8] of 136 nM, a koff [8] of 0.134 s⁻¹ and a kon [8] of 980000 M⁻¹ s⁻¹.

B2: DOM7h-14-36 (other)
VL: DIQMTQSPSSLSASVGDRVTITCRASQWIGSQLSWYQQKPGKAPKLLIMWRSSLQSGVPSRFSGSGSGTDFTLTISSLQPEDFATYYCAQGFKKPRTFGQGTKVEIKR
notes: Vk dAb; tag not included
B2 gave a Kd [2] of 30 nM, a koff [2] of 0.029 s⁻¹ and a kon [2] of 1.55e+06 M⁻¹ s⁻¹. It also gave a Kd [3] of 35 nM, a koff [3] of 0.023 s⁻¹ and a kon [3] of 870000 M⁻¹ s⁻¹. For the same binder, the Kd [5] was 1260 nM, the koff [5] was 0.067 s⁻¹ and the kon [5] was 54000 M⁻¹ s⁻¹. For the same binder, the Kd [6] was 6120 nM, the koff [6] was 0.0554 s⁻¹ and the kon [6] was 9000 M⁻¹ s⁻¹. For the same binder, the Kd [7] was 33 nM, the koff [7] was 0.0706 s⁻¹ and the kon [7] was 2.11e+06 M⁻¹ s⁻¹. The Kd [8] was 7830 nM, the koff [8] was 0.11 s⁻¹ and the kon [8] was 14300 M⁻¹ s⁻¹.

B3: DOM7h-11 (other)
VL: DIQMTQSPSSLSASVGDRVTITCRASRPIGTTLSWYQQKPGKAPKLLIWFGSRLQSGVPSRFSGSGSGTDFTLTISSLQPEDFATYYCAQAGTHPTTFGQGTKVEIKR
notes: Parental Vk dAb; also called DOM7h-12
B3 was tested, and the Kd [1] was 2800 nM, the koff [1] was 0.641 s⁻¹ and the kon [1] was 700000 M⁻¹ s⁻¹.

B4: DOM7h-11-15 (other)
VL: DIQMTQSPSSLSASVGDRVTITCRASRPIGTMLSWYQQKPGKAPKLLILAFSRLQSGVPSRFSGSGSGTDFTLTISSLQPEDFATYYCAQAGTHPTTFGQGTKVEIKR
notes: Vk dAb; pDOM5 myc tag not included; also called DOM7-11-15; DOM7h-12-15
B4 gave a kon [4] of 5.8e+06 M⁻¹ s⁻¹.

B5: DOM7h-11-12/DOM1m-21-23 fusion DMS number 5516 (bispecific antibody)
chain: EVQLLESGGGLVQPGGSLRLSCAASGFTFNRYSMGWLRQAPGKGLEWVSRIDSYGRGTYYEDPVKGRFSISRDNSKNTLYLQMNSLRAEDTAVYYCAKISQFGSNAFDYWGQGTQVTVSSASTSGPSDIQMTQSPSSLSASVGDRVTITCRASRPIGTMLSWYQQKPGKAPKLLILFGSRLQSGVPSRFSGSGSGTDFTLTISSLQPEDFATYYCAQAGTHPTTFGQGTKVEIKRAAAEQKLISEEDLN
notes: also called DMS5516
For B5, the “fold decrease in affinity compared to the unfused AlbudAb” value [9] was 2 fold.

B6: DOM7h-11/DOM1m-21-23 fusion DMS number 5515 (bispecific antibody)
chain: EVQLLESGGGLVQPGGSLRLSCAASGFTFNRYSMGWLRQAPGKGLEWVSRIDSYGRGTYYEDPVKGRFSISRDNSKNTLYLQMNSLRAEDTAVYYCAKISQFGSNAFDYWGQGTQVTVSSASTSGPSDIQMTQSPSSLSASVGDRVTITCRASRPIGTTLSWYQQKPGKAPKLLIWFGSRLQSGVPSRFSGSGSGTDFTLTISSLQPEDFATYYCAQAGTHPTTFGQGTKVEIKRAAAEQKLISEEDLN
notes: also called DMS5515; 'the DOM7h-12 clone' when fused
In the case of B6, the Kd [10] is reported as 2800 nM.

B7: DOM7h-11-15/DOM1m-21-23 fusion DMS number 5517 (bispecific antibody)
chain: EVQLLESGGGLVQPGGSLRLSCAASGFTFNRYSMGWLRQAPGKGLEWVSRIDSYGRGTYYEDPVKGRFSISRDNSKNTLYLQMNSLRAEDTAVYYCAKISQFGSNAFDYWGQGTQVTVSSASTSGPSDIQMTQSPSSLSASVGDRVTITCRASRPIGTMLSWYQQKPGKAPKLLILAFSRLQSGVPSRFSGSGSGTDFTLTISSLQPEDFATYYCAQAGTHPTTFGQGTKVEIKRAAAEQKLISEEDLN
notes: also called DMS5517
With B7 the “fold decrease in affinity compared to the unfused AlbudAb” value [9] was 2 fold.
